Results taken from paper doi:10.1101/2025.07.18.665471 (bioRxiv, 2025).
Substitutions are numbered along the chain they refer to. Names and notes keep the numbering of the source. Values joined by “and” are separate entries in the source; they are usually repeats but may differ in a detail not shown here. Equal entries are not always repeated. Where two headings read alike, the source gives them in different places.

B1: MBP-PAH(RD), regulatory domain of PAH (PAH(1-112)) fused to maltose binding protein (domain or fragment, human, UniProt P00439 1-112, looked up)
chain: MSTAVLENPGLGRKLSDFGQETSYIEDNCNQNGAISLIFSLKEEVGALAKVLRLFEENDVNLTHIESRPSRLKKDEYEFFTHLDKRSLPALTNIIKILRHDIGATVHELSRD
B2: PAH-p.R261Q, PKU-associated variant of phenylalanine hydroxylase (enzyme, human)
chain: MSTAVLENPGLGRKLSDFGQETSYIEDNCNQNGAISLIFSLKEEVGALAKVLRLFEENDVNLTHIESRPSRLKKDEYEFFTHLDKRSLPALTNIIKILRHDIGATVHELSRDKKKDTVPWFPRTIQELDRFANQILSYGAELDADHPGFKDPVYRARRKQFADIAYNYRHGQPIPRVEYMEEEKKTWGTVFKTLKSLYKTHACYEYNHIFPLLEKYCGFHEDNIPQLEDVSQFLQTCTGFRLRPVAGLLSSRDFLGGLAFQVFHCTQYIRHGSKPMYTPEPDICHELLGHVPLFSDRSFAQFSQEIGLASLGAPDEYIEKLATIYWFTVEFGLCKQGDSIKAYGAGLLSSFGELQYCLSEKPKLLPLELEKTAIQNYTVTEFQPLYYVAESFNDAKEKVRNFAATIPRPFSVRYDPYTQRIEVLDNTQQLKILADSINSEIGILCSALQKIK
B3: phenylalanine hydroxylase (PAH), wild type, human (enzyme, UniProt P00439 1-452, looked up)
chain: B2 chain with Q261R
modifications: biotin (EZ-Link NHS-PEG4-Biotin), for the BLI only

Assays:
[1] = biological target: T1, DNAJC12, wild type, human, full-length (human, UniProt Q9UKB3 1-198); assay: SEC
[2] = biological target: the molecule itself; assay: SEC-MALS
[3] = biological target: T1, DNAJC12, wild type, human, full-length; assay: BLI
[4] = biological target: T1, DNAJC12, wild type, human, full-length; assay: BLI; remark: listed apart in the source

T1 sequence (Q9UKB3 whole entry): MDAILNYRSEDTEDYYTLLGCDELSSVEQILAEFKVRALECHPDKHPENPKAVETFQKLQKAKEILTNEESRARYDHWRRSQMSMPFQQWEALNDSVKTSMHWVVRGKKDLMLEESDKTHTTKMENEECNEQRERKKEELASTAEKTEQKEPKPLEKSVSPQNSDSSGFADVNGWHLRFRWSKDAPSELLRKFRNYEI

Binder	binding result [1]	stoichiometry N [2]	Kd [3] [nM]	Kd [4] [nM]
B1	binds			
B2	binds			
B3		4 and 8	139 ± 19	508 ± 59
